Ends that are not written are not given here.
Target: nano-HER2-E3 (UniProt P04637)
Assay: SEC; analytical chromatography on Superdex 200 Increase 5/150 GL; equimolar mixtures

formation of the complexes (percent): < 95%
Binder: C(Alexa‑647 maleimide)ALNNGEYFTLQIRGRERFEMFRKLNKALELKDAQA [647-C-K3]

Source: article PMC9696751
